The RNAGym collection of RNA variant scans (doi:10.1073/pnas.2313332121)

B1: TPR t1 (parent)
chain: GACCAAUCUGCCCUCAGAGCUCGAGAACAUCUUCGGAUGCAGAGGAGGCAGGCUUCGGUGGCGCGAUAGCGCCAACGUCCUCAACCUCCAAUGCAUCCCACCACAUGAUGAUGCCUGAAGAGCCUUGGUUUUUUG

Variants of: B1
Test: polymerase ribozyme fitness, log enrichment relative to wild type (log ratio); higher = more active; in vitro selection for triplet polymerase activity
In short: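 After PCR construction and transcription, each subunit's mutant library from a heterodimeric triplet polymerase ribozyme was annealed with a biotinylated primer, the partner subunit and triplets. Incubation was frozen, at −7 °C, and extended constructs were gel-excised, bound to streptavidin beads and amplified by RT-PCR, in one selection round done in triplicate. Fitness is the logarithm of a genotype's enrichment divided by that of the wild type, from inverse-variance-weighted replicate averages of Illumina-sequenced inputs and outputs. The base of the logarithm is 2, and genotypes needed ≥10 input reads and ≥1 read per output.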

Variant	polymerase ribozyme fitness (log ratio)
A50C C123G	0.334
A50U U87G	-1.44
A50U G57A U130C	-1.53
G51A C56U G63C A84U C99U A121U	-6.23
C49U G58U C62G A119U C124U	-1.37
C49U G52C U55C	-1.55
A50U G93C	-1.95
A50U U81A	-0.662
A50U U81C	-1.83
C49U G61C	-1.88
C49U G61A	-0.0564
A50C C82A	-0.499
G51A A103G	-6.42
C49U G93A C101U G127C	-2.96
C49U G77A	0.352
C49U G77U	0.0294
C49U U131A	-0.481
C49U G77C C124G U125C	-0.664
A50U G63U C89U	-3.86
G51A G52A G61U C101U	-3.85
C49U G117U	-2.67

Variant	polymerase ribozyme fitness (log ratio)
A50C G63U U81G G128C	-4.28
A50U G60A C70U G93A	-3.24
G51C C82A	-4.42
G51A G69U C88U G93A U109G U133C	-4.55
C49U G51U C62U C80A	-3.6
C49U G93A G110A	-2.9
A50C G63A U125G G127U	-2.41
A50C C62A C98A A111U U112A	-6.58
C49U G107A	-3.94
A50U G61U U126G	-2.73
A50U U109A	-5.95
A50C G120C	0.605
A50C G120A	0.456
A50U C62U U133G	-1.1
A50U G52C G58C C73U C88U	-4.53
A50G C53G G61A C64U U116A G117A	-4.58
C49U U54C G117U G128A	-5.68
A50G C101U	-0.187
A50U C62G C86G A105U A108U C124G	-7.62
A50C G71U U87A	-1.95
C49U G57A U96A	-3.31

Variant	polymerase ribozyme fitness (log ratio)
A50C G110U	-1.99
G51C A91C U112A U131C	-6.14
A50C A74U	-1.45
A50G C104A	-1.49
A50G C104U	-0.208
C49U U59G	-1.24
A50C G71A G77U G120C	-1.85
C49U G113U C114U	-2.07
A50U G63A U106C	-3.09
C49U U109G	-5.61
A50G G69U	0.675
A50U C64U A105C A118U	-4.51
G51A G71U G77U	-3.39
A50G G63U	-1.73
A50U C62A C82A	-1.33
C49U U96A U106A	-1.67
A50U U96A	-1.77
A50U C72U U96A U112A	-1.9
A50U C115U	-2.37
A50U C73U	-0.956
G51A G69C U112A	-5.2

Variant	polymerase ribozyme fitness (log ratio)
A50C G63U U81A U129A	-2.04
A50C C94U C123U	1.49
G51C C53G C94G	-5.44
C49U U130C	0.0143
C49U U130A	-0.901
A50G C53G G60U C72U C101A	-3.8
A50U C56U C73G C88U	-3.49
A50U C72G C79U U112A	-3.66
A50C G61C	-3.35
A50U U54A G63C U112A	-2.51
A50U U125G U129C	-2.41
C49U U92G A121G	-1.61
A50U U87G G113U	-4.19
G51A U87C U131A	-2.41
A50U G69A C123G U131G	-4.01
A50G C123U	1.02
C49U G135U	-1.61
A50U G51U G69A C97U U109A	-6.25
A50U G61C G122U	-3.51
C49U U116G	-2.41
